T1: MHC class II I-A^b molecules purified by affinity chromatography (;mouse, UniProt P14434 24-218; P14483 28-226)
T1 MHC II alpha: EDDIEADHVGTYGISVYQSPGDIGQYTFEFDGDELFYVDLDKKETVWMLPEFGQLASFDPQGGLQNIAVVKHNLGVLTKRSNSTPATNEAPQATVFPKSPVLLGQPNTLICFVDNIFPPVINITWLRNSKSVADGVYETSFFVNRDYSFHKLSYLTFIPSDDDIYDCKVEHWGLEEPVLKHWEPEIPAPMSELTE
T1 MHC II beta: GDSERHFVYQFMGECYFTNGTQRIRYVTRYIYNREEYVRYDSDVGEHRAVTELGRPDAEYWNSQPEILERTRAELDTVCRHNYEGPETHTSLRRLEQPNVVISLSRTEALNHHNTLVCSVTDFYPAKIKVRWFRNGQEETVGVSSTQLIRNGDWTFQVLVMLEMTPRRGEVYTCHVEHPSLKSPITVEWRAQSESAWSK

The source of these data is US20250052751A1 (published 2025).

For this test, the target named is T1, MHC class II I-A^b molecules purified …. Kind of test: competitive peptide binding assay on purified I-Ab.
For the molecule LFAINYTGASMNPARSF [AQP4 p202-218], the IC50 (usually the concentration needed to halve the response being measured) came out at 16 nM.
Next, LYLVTPPSVVGGLGVT [AQP4 p133-149]: 184 nM; VAFKGVWTQAFW [AQP4 p24-35]: 4880 nM.
Under GILYLVTPPSVVGGLGVTMV [AQP4 131-150] stands 112 nM.
Next, HLFAINYTGASMNPARSFGP [AQP4 201-220]: 28 nM.
